Consider 167 variants from the RNAGym collection of RNA variant scans (doi:10.1101/gr.219683.116).

B1: mRNA-splicing (parent)
chain: AGUUGCUGCUGGGAGCUCCAGCACAGUGAAAUGGACAGAAGGGCAGAGCAA

Variants of B1 are the subject of the series. Description: exon inclusion enrichment index; higher = more inclusion; WT1 exon 5 minigene, HEK293.
C6A U7C C9A U10C C18A C19U: the “exon inclusion enrichment index” value came to 0.374.
For the variant C6A U7C C9A U10C C18A C19G, the “exon inclusion enrichment index” value came to 0.998.
The value for G5C C6U G8C C9U U10G G11C was 2.13; that for G5A C6U C9A was 0.306; that for G5A U7C G8A U10C U27C was 4.31.
The value for G5A C6G U7G C9A C19U was 0.00126; that for C6A U7A C9A U10A C44U A45U was 0.433.
The value for G5C C6G U7C U10C C24G A25U was 3.91; that for G5C C6G U7C U10C A31G U32C was 4.5.
Turning to A39C A40C, the “exon inclusion enrichment index” value stood at 0.407.
The same measure for C6A U7A C9A U10A G46U A47C: 1.79.
As for G5U G8U C9U U27C, the “exon inclusion enrichment index” value came to 0.478.
In the case of A39G A40G, the “exon inclusion enrichment index” value is 0.0122.
For A39G A40U, the “exon inclusion enrichment index” value turned out to be 0.0108.
The same measure for U3C U4G G5A C6G U7G C9A: 0.106; for G5U G8U C9U A37C G38U: 0.0543.
The value for G5A U7C G8A U10C G12U G13A was 0.238.
In the case of G5A C6G U7G G8C C9A, the “exon inclusion enrichment index” value was determined as 0.0086.
The value for G5C C6U G8C C9U U10C A35G was 0.766.
The value for G5U G8U C9U G46U A47U was 0.164.
The same measure for G5C C6G U7C U10C A47C: 3.06.
Regarding G5C C6G U7C U10C A47U, the “exon inclusion enrichment index” value stood at 3.3.
As to G5C C6G U7C U10C G34A A35C, the “exon inclusion enrichment index” value stood at 2.92.
The value for G5C C6U C9G U10C was 1.31.
The value for G5U G8U C9U G15C C16U was 0.0902; that for G5C C6A U7C G8A U10A G43C C44U was 0.0879.
The value for G5A C6G U7G C9A A40C G41U was 0.00114; that for G5C C6A U7C G8A U10A A14C G15A was 0.0306; that for G5A C6U U7A G8U C9A A45C was 0.106.
Regarding G5U G8U C9U A39U A40U, the “exon inclusion enrichment index” value was 0.0352.
The value for G5A C6U U7A G8U C9A U32A was 0.0571; that for C6U U7G C9A U10C was 1.45; that for C6A U7C C9A U10C G46U A47G was 2.8.
The value for G5C C6A U7C G8A U10A U27C G28C was 0.163.
The same measure for G5C C6U G8C C9U U10C A20G G21C: 1.71; for G5A C6U U7A G8U C9A U32G G33C: 0.0522; for G5U G8U C9U C18G C19A: 0.159.
Take C6A U7A C9A U10A C19A A20G: the “exon inclusion enrichment index” value was 0.0532.
As to G5C C6A U7C G8A U10A A14C, the “exon inclusion enrichment index” value was found to be 0.0603.
The value for G5A C6U U7A G8U C9A C16U U17G was 0.0217; that for G5C C6A U7C G8A U10A A20C G21U was 0.0192; that for C6A U7C C9A U10C A39C A40C was 3.31.
The value for G5C C6U G8C C9U U10C A14U G15C was 0.66.
The value for G5C C6G U7C U10C A14U G15A was 1.41.
Regarding G5A C6U U7A G8U C9A C36A A37U, the “exon inclusion enrichment index” value came to 0.0158.
On to C6A U7A C9A U10A G13C A14U, for which the “exon inclusion enrichment index” value worked out at 1.56.
The value for C6A U7A C9A U10A G13C A14C was 1.58.
The value for C6A U7C C9A U10G G11U was 2.09; that for G5A C6U U7A G8U C9A A45U G46A was 0.0424.
For the variant G5C C6G U7C U10C G26A U27A, the “exon inclusion enrichment index” value was 3.45.
The value for G5A C6G U7G C9A A29C A30G was 0.0167; that for C6A U7C C9A U10C A39C was 1.37.
The same measure for G5C C6U U7G C9U U10C: 0.743; for G5A C6U U7A G8U C9A A30C A31C: 0.126.
Regarding G5C C6G U7C U10C U17C, the “exon inclusion enrichment index” value came to 3.43.
The same measure for C6A U7A C9A U10A A25U: 1.04; for C6A U7C C9A U10C C44G A45C: 4.25; for U4G G5A U7C G8A U10C: 3.1.
The same measure for G5C C6A U7C G8A U10A G11A G12A: 0.202; for G5A C6U U7A G8U C9A A35G C36A: 0.0117; for G5C C6U G8C C9U U10C G15C C16G: 2.09.
The value for G5A C6U U7A G8U C9A U32A G33C was 0.0967; that for C6A U7C C9A U10C A35C C36G was 2.56; that for C6A U7A C9A U10A A20C was 0.58.
In the case of U10G G11A, the “exon inclusion enrichment index” value is 2.34.
The value for G5C C6U G8C C9U U10C C36G A37C was 0.671; that for G5A U7C G8A U10C G34A A35U was 0.813; that for G5A U7C G8A U10C G34A A35G was 1.09.
The same measure for G5A C6U U7A G8U C9A G42A G43A: 1.16; for U4C G5C C6A U7C G8A U10A: 0.286.
The value for G5A U7C G8A U10C C24U was 0.763; that for G5C C6G U7C U10C A39G was 2.45; that for U7C G8A U10A was 0.437.
As for C6A U7C C9A U10C G26C, the “exon inclusion enrichment index” value came to 3.46.
The value for G5C U10C was 1.29; that for U7C G8U was 1.05; that for G5A U7C G8A U10C G13A A14G was 2.19.
With C6A U7A C9A U10A G48C, the “exon inclusion enrichment index” value was 1.15.
Consider G5C C6U G8C C9U U10C G11U, for which the “exon inclusion enrichment index” value was 1.
Turning to C6A U7C C9A U10C G26A U27C, the “exon inclusion enrichment index” value turned out to be 4.65.
In the case of G5C C6G U7C C9G, the “exon inclusion enrichment index” value came to 1.96.
The same measure for C6A U7A C9A U10A A14U G15U: 0.295; for C6A U7A C9A U10A G15C: 1.25.
The value for C6A U7A C9A U10A A31C was 0.898; that for G5C C6U G8C C9U U10C A45G G46U was 1.68; that for G5C C6G U7C U10C A39U A40C was 3.55.
The value for G5A U7C G8A U10C G26A U27A was 2.4; that for C6A U7C C9A U10C A40G G41U was 2.58.
As to G5A U7C G8A U10C G28A A29G, the “exon inclusion enrichment index” value amounted to 1.02.
Regarding G5A U7C G8A U10C G38A A39U, the “exon inclusion enrichment index” value turned out to be 0.204.
The same measure for G5C C6G U7C U10C A25C G26C: 4.35; for G5C C6G G8U U10C: 2.67.
The value for U4C G5A C6G U7G C9A was 0.0522; that for G5A C6G U7G C9A A25U G26U was 0.000854; that for G5C C6A U7C G8A U10A G43U C44G was 0.112.
The value for G5A C6G U7G C9A G41U was 0.000489; that for G5C C6U U7A G8C C9U U10C was 1.66; that for G5A U7G G8A U10C was 2.7.
Turning to G5U G8U C9U A30U A31C, the “exon inclusion enrichment index” value was found to be 0.0725.
The value for C6A U7A C9A U10A C24G A25C was 2.12; that for G5A C6G U7G C9A C24G A25U was 0.00102; that for G5A C6G U7G C9A U32G G33C was 0.00522.
For the variant G5A C6G U7G C9A G41C G42C, the “exon inclusion enrichment index” value amounted to 0.0196.
The value for G5C C6U G8C C9U U10C G11A G12U was 0.314; that for G33U G34U was 0.0123; that for G5C C6A U7C G8A U10A C18U C19G was 0.0165.
The value for C6A U7C C9A U10C G28C was 3.06.
The value for G5C C6G U7C U10C A25U was 3.84.
Consider G33C G34U, for which the “exon inclusion enrichment index” value turned out to be 0.0871.
Take G26C U27A: the “exon inclusion enrichment index” value is 0.11.
The value for C6A U7C C9A U10C G13A A14G was 3; that for C6A U7C C9A U10C G13A A14U was 3.22.
The same measure for G5A U7C G8A C9A U10C: 2; for U32A G33U: 0.0657.
The value for G42C was 0.853; that for G5A U7C G8A U10C G34C was 0.949.
Consider G5C C6U U7C C9U U10C, for which the “exon inclusion enrichment index” value came out at 3.09.
The same measure for G5A C6G U7G C9A G26C U27A: 0.00255; for G5A C6G U7G C9A A47G: 0.00123; for C9U: 1.36.
The same measure for G5A C6U U7A G8U C9A C19U A20U: 0.00982; for C6A U7C C9A U10C G34C A35G: 2.67; for G5C C6U G8C U10G: 1.68.
For the variant G5U G8U C9U A14G, the “exon inclusion enrichment index” value was 0.0707.
The value for G5A C6U U7G G8U C9A was 0.144.
The same measure for C6A U7A C9G U10C: 1.05; for G5A C6G U7G C9A G34A A35U: 0.00125; for G5U G8U C9U A25C: 0.793.
Consider G2A U3A G5C C6G U7C U10C, for which the “exon inclusion enrichment index” value was 3.39.
On to G2A C6A U7C C9A U10C, for which the “exon inclusion enrichment index” value was 4.19.
As to G5A C6U U7A G8U C9A G41C G42C, the “exon inclusion enrichment index” value is 0.417.
Turning to C22A, the “exon inclusion enrichment index” value amounted to 2.09.
The same measure for G5C C6G U7C U10C G11A G12U: 1.83.
In the case of G5C C6U G8C C9U U10C G13C, the “exon inclusion enrichment index” value was 0.822.
On to G5C C6U G8C C9U U10C G13A, for which the “exon inclusion enrichment index” value was 2.18.
Turning to G2A U3A G5U G8U C9U, the “exon inclusion enrichment index” value amounted to 0.155.
On to G5A C6G U7G C9A G46U, for which the “exon inclusion enrichment index” value was 0.000617.
The value for G5U G8U C9U U32C G33C was 0.216; that for G43A C44A was 0.778; that for G5U G8U C9U C16U U17C was 0.0384.
The value for G5C C6G U7C U10C C19A A20C was 2.85; that for G5C C6A U7G G8A U10A was 0.0223.
G5C C6A U7C G8A U10A U32G: the “exon inclusion enrichment index” value stood at 0.00606.
In the case of G5C C6G U7C U10C G46C, the “exon inclusion enrichment index” value was found to be 2.78.
As for C6A U7C C9A U10C A45G G46U, the “exon inclusion enrichment index” value is 2.89.
The value for G5A C6U U7A G8U C9A A30G A31C was 0.00117; that for G5A U7C G8A U10C G43A was 4.17.
Consider G5U G8U C9U G33U G34U, for which the “exon inclusion enrichment index” value worked out at 0.00702.
For the variant G5A U7C G8A U10C U32A, the “exon inclusion enrichment index” value stood at 1.87.
The value for G5C C6U G8C C9U U10C A30G was 2.12; that for G5C C6G U7C U10C U27A G28U was 1.9; that for G5A U7C G8A U10C C18A C19U was 0.0739.
For the variant G5U G8U C9G U10G, the “exon inclusion enrichment index” value was 0.108.
For the variant C6A U7C C9A U10C A30U A31C, the “exon inclusion enrichment index” value is 2.83.
The value for A14U was 0.0353; that for G5C C6G U7C U10C C36A A37U was 2.07.
The value for G5C C6U G8C C9G U10G was 3.42.
As to C6A U7C C9A U10C A47G G48C, the “exon inclusion enrichment index” value came out at 1.71.
Consider G5U G8U C9U A29U A30G, for which the “exon inclusion enrichment index” value came out at 0.129.
The same measure for C6A U7A C9A U10A G28U A29G: 0.627; for G5C C6U G8C C9U U10C A23G: 2.93.
For the variant G5C C6U G8C C9U U10C A29C A30C, the “exon inclusion enrichment index” value was 2.52.
G5C C6A U7C G8A U10A C44U A45U: the “exon inclusion enrichment index” value came out at 0.0623.
The value for G5C C6G U7C U10C A45C was 3.17.
The same measure for G5C C6A U7C G8A U10A C44G A45G: 0.00762.
The same measure for U3G C6A U7C C9A U10C: 0.785; for C6A U7C C9A U10C C24U: 1.66.
